From patent publication US20230167165A1

Molecular target: monomeric human protein of therapeutic interest (antigen of Examples 1-7) (human)
Assay: competition flow cytometry; control scFv-Fc supernatant preincubated 15 min with 10 nM labeled antigen, then yeast displaying parental scFv added

Q2 (% of cells displaying the parental scFv that bind antigen in presence of the competing scFv-Fc): 69.9%
Substance: unrelated scFv-Fc (control) (Fc fusion)
